In patent publication US20200231684A1 (published 2020):
Read-outs that look alike come from different tables or passages of the source.

T1: human IL-36R on cells (human, UniProt Q9HB29 20-575)
T1 sequence (looked up): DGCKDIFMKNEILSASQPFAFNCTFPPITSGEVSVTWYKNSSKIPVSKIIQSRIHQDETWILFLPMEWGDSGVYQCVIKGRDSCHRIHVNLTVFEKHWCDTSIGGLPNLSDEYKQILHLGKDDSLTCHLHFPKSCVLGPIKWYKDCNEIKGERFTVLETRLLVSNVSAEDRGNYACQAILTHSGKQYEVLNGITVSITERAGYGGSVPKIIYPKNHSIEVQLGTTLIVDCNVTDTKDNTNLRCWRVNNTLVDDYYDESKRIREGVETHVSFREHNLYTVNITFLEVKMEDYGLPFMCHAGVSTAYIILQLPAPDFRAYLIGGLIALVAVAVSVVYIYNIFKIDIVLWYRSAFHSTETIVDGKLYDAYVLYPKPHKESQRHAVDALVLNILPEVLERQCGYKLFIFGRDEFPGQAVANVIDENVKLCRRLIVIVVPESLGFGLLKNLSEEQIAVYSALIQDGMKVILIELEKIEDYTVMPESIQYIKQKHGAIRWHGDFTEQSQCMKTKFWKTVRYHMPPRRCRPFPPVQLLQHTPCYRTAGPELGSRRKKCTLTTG

T2: recombinant human IL-36R (ECD) (human, UniProt Q9HB29 20-332)
T2 construct: range 20-332; also called IL-1RL2; IL-1Rrp2
T2 sequence (looked up): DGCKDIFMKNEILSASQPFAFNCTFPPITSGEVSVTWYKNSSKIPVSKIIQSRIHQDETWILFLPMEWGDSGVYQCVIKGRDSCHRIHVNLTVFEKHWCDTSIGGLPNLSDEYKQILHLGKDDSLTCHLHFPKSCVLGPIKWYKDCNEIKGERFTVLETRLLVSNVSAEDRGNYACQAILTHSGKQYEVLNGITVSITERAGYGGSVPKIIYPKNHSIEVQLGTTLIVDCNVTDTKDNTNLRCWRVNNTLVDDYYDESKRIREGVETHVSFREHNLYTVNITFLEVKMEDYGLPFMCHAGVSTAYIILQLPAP

T3: mouse IL-36R (mouse, UniProt Q9ERS7 22-338)
T3 sequence (looked up): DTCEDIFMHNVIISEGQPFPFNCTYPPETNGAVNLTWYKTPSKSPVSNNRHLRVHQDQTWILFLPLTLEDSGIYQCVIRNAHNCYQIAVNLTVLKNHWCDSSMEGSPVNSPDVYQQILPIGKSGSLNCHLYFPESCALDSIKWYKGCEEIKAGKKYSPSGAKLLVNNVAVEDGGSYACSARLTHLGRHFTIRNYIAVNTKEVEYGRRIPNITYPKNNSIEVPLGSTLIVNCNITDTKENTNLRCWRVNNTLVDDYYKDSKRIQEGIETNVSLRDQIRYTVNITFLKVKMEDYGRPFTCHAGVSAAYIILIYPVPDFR

T4: human IL-1R1 (human, UniProt P14778 18-336, limits assumed)
T4 construct: also called IL-1RI
T4 sequence (looked up): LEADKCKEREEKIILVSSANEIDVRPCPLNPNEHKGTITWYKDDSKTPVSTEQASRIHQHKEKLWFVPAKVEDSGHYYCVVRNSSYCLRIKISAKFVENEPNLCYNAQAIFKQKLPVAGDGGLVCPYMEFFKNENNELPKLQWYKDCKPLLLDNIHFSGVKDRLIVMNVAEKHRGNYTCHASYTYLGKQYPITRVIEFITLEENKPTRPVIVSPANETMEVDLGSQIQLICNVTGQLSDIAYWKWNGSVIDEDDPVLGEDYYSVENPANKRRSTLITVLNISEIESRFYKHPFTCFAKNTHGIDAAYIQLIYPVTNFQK


Experiments:
human IL-36R on cells [1] = target: T1, human IL-36R on cells; assay: cell-based or functional assay
[2] = target: cynomolgus IL-36R on BaF/3 cells (cynomolgus, UniProt A0A2K5WSK9 20-558); assay: cell-based or functional assay
[3] = target: T2, recombinant human IL-36R (ECD); assay: SPR (ProteOn), single IL-36R surface coat concentration
Experimental: A) Kinetics and binding affinities of anti-IL-36R antibodies binding to recombinant human IL-36R were measured using the Proteon (Bio-Rad, Hercules, Calif.) using material generated from hybridoma following single column purification. […] Binding of the chimeric anti-IL36R IgGs is equivalent to the respective mouse leads.

mouse IL-36R = target: T3, mouse IL-36R; assay: BLI (Fortebio Octet), antibody injected over antigen surface
Experimental: (§1) B) Molecular selectivity over mouse IL-36R and human IL-1R1 The mouse and chimeric anti-IL-36R antibodies were also injected over either a mouse IL-36R or a human IL-1R1 surface at a concentration of 100 nM. The binding signal to mouse IL-36R and to human IL-1R1 for these antibodies measured using the Fortebio Octet (Fortebio, Menlo Park, Calif.) is zero, which indicates these antibodies selectively bind to human IL-36R.

human IL-1R1 = target: T4, human IL-1R1; assay: as above
Experimental: as §1

human IL-36R on cells [4] = target: T1, human IL-36R on cells; assay: flow cytometry, HEK293 cells transfected with full-length human IL-36R
Experimental: HEK293 cells transfected with full-length human IL-36R or NCI/ADR-RES cells were passaged for 24 hours prior to staining. Cells were removed from flasks by rinsing with 10 ml of 5 mM EDTA in PBS, and then incubated at 37° C. for 10 min with an additional 10 ml of 5 mM EDTA and 2.5 ml of Accumax to declump/disperse cells. Antibodies were then diluted to specified concentrations in PBS+2% BSA, and cells incubated for 20 min at room temperature. Excess antibody was then washed by adding 200 μl of PBS and then centrifuged. Secondary reagent was then added at 50 μl per well and cells are incubated for 15 min at room temperature and then washed as above. Cells were resuspended in 200 μl PBS and analyzed by flow cytometry.

human IL-36R on cells [5] = target: T1, human IL-36R on cells; assay: cell-based or functional assay; remark: listed apart in the source

Chain of cynomolgus IL-36R on BaF/3 cells (A0A2K5WSK9 entry or part of it): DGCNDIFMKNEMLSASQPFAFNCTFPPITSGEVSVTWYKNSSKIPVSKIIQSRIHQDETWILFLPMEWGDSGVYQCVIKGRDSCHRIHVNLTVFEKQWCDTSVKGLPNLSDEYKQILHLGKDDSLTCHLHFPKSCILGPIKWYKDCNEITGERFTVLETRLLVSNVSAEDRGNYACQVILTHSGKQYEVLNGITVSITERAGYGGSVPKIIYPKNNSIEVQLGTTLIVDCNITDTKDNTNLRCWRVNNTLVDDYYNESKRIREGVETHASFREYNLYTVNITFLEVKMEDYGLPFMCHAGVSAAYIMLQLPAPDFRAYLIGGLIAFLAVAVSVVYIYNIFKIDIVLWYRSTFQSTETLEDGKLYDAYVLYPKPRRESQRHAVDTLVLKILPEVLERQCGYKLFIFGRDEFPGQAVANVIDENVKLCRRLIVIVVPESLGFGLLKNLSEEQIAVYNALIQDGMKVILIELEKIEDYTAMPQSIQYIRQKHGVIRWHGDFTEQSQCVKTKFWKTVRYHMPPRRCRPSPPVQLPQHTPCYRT

Binder | IC90, pNFκB, NCI/ADR-RES cells, trun-IL-36g (human IL-36R on cells [1]) | IC90, pNFκB, BaF/3 cynomolgus IL-36R cells, trun-IL-36a [2] | IC90, pNFκB, BaF/3 cynomolgus IL-36R cells, trun-IL-36b [2] | IC90, pNFκB, BaF/3 cynomolgus IL-36R cells, trun-IL-36g [2] | Kd [3] | binding result (mouse IL-36R) | binding result (human IL-1R1) | EC50 (human IL-36R on cells [4]) | IC90, pNFκB, NCI/ADR-RES cells, trun-IL-36a (human IL-36R on cells [5]) | IC90, pNFκB, NCI/ADR-RES cells, trun-IL-36b (human IL-36R on cells [5]) | IC90, pNFκB, NCI/ADR-RES cells, trun-IL-36g (human IL-36R on cells [5])
antibody 76E10 (antibody, V domains shown, Mouse monoclonal from hybridoma; also called 76E10E8) VH: QVQLKESGPVLVAPSQSLSITCTVSGFSLTNYGVHWVRQPPGKGLEWLGVIWPVGSTNYNSALMSRLSIHKDNSKSQVFLRMNSLQTDDTAIYYCAKMDWDDFFDYWGQGTTLTVSS VL: DIVMTQSQKFMSATVGGRVNITCKASQNVGRAVAWYQQKPGQSPKLLTHSASNRYTGVPDRFTGSGSGTDFTLTITNMQSEDLADYFCQQYSSYPLTFGAGTKLDLK | 1.9 nM | > 4 µM | > 333 nM | > 333 nM | < 0.1 nM | no binding (tested: 100 nM) | no binding (tested: 100 nM) | 0.426 nM |  |  | 
antibody 89A12 (antibody, V domains shown, Mouse monoclonal from hybridoma; also called 89A12B8) VH: EVQLQQSGAELVRPGASVRLSCTASGFNIKDDYIHWVRQRPKQGLEWLGRIDPANGNTKYDPRFQDKATITADTSSNTAYLHLSSLTSEDTAVYYCAKSFPDNYYSYDDAFAYWGQGTLVTVSA VL: DIQMTQSPASQSASLGESVTFSCLASQTIGTWLGWYQQKPGKSPQLLIYRATSLADGVPSRFSGSGSGTNFSFKISSLQAEDLASYYCQQLYSGPYTFGGGTKLEIR | 145 nM | > 4 µM | > 333 nM | > 333 nM | < 0.1 nM | no binding (tested: 100 nM) | no binding (tested: 100 nM) | 0.609 nM |  |  | 
antibody 67E7 (antibody, V domains shown, Mouse monoclonal from hybridoma; also called 67E7E8) VH: EVQLQQSGAEFVRPGASVKFSCTASGFNIKDDYIHWVRQRPEQGLEWVGRIDPANGNTKYAPKFQDKATITADTSSNTAYLQLSSLTSEDTAVYYCAKSFPNNYYSYDDAFAYWGQGTLVTVSA VL: DIQMTQSPASQSASLGESVTFTCLASQTIGTWLGWYQQKPGKSPQLLIYRSTTLADGVPSRFSGSGSGTKFSFKISSLQAADFASYYCQQLYSAPYTFGGGTKLEIR | > 67 nM | > 4 µM | > 333 nM | > 333 nM | < 0.1 nM | no binding (tested: 100 nM) | no binding (tested: 100 nM) | 0.532 nM |  |  | 
antibody 172C8 (antibody, V domains shown, Mouse monoclonal from hybridoma; also called 172C8B12) VH: EVQLQQSGPELVKPGASVKLSCKASGYTFTDNYMNWVRQSHGKSLEWIGRVNPSNGDTKYNQNFKGKATLTVDKSLSTAYMQLNGLTSEDSAVYYCGRTKNFYSSYSYDDAMDYWGQGTSVTVSS VL: DIQMTQSPASQSASLGESVTFTCLASQTIGTWLAWYQQRPGKSPQLLIYAATSLADGVPSRFSGSGSGTQFSFNIRSLQAEDFASYYCQQVYTTPLTFGGGTKLEIK | 3.8 nM | > 4 µM | > 333 nM | > 333 nM | < 0.1 nM | no binding (tested: 100 nM) | no binding (tested: 100 nM) |  |  |  | 
Antibody C1 (antibody, human IgG1, kappa, L234A L235A, V domains shown) VH: QVQLQESGPGLVAPSETLSLTCTVSGFSLTDYAVHWIRQFPGKGLEWIGVIWSDGSTDFNAPFKSRVTISKDTSKNQVSFKLSSVTTDDTAVYYCARKGGYSGSWFAYWGQGTLVTVSS VL: EIVMTQSPATLSVSPGVRATLSCKASQDVGTNVLWYQQKPGQAPRPLIYSASYRHSGIPARFSGSGSGTEFTLTISSLQSEDFAEYYCQQYSRYPLTFGQGTKLEIKR |  |  |  |  |  |  |  |  | 4.6 nM | 5.5 nM | 3.4 nM
Antibody C3 (antibody, human IgG1, kappa, L234A L235A, V domains shown) VH: QVQLQESGPGLVAPSETLSLTCTVSGFSLTDYAVHWIRQFPGKGLEWIGVIWSDGSTDFNAPFKSRVTISKDTSKNQVSFKLSSVTTDDTAVYYCARKGGYSGSWFAYWGQGTLVTVSS VL: EIVMTQSPATLSVSPGVRATLSCKASQDVGTNVLWYQQKPGQAPRPLIYSASYRHSGIPDRFSGSGSGTEFTLTISSLQSEDFAVYYCQQYSRYPLTFGQGTKLEIKR |  |  |  |  |  |  |  |  | 9.8 nM | 5.6 nM | 5.1 nM
Antibody C2 (antibody, human IgG1, kappa, L234A L235A, V domains shown) VH: QVQLQESGPGLVKPSETLSITCTVSGFSLTDYAVHWIRQPPGKGLEWIGVIWSDGSTDYNAPFKSRVTISKDNSKSQVSFKMSSVTADDTAVYYCARKGGYSGSWFAYWGQGTLVTVSS VL: EIVMTQSPATLSVSPGVRATLSCKASQDVGTNVLWYQQKPGQAPRPLIYSASYRHSGIPDRFSGSGSGTEFTLTISSLQSEDFAVYYCQQYSRYPLTFGQGTKLEIKR |  |  |  |  |  |  |  |  | 9.7 nM | 8.6 nM | 6.1 nM
